Laboratory results from patent US20250289893A1 (OXFORD UNIVERSITY INNOVATION, published 2025).

Legend:
[1] = target: T1, Cynomolgus monkey CD1a expressed on HEK-293 cells (Cynomolgus monkey, UniProt A0A2K5VQ68 17-326); test: flow cytometry, HEK-293 cells, 0.01 µg/ml antibody
[2] = target: chimeric CD1a pool B protein [human CD1a lipid binding domain, mouse CD1d Ig domain] (human; mouse, UniProt P06126 18-201; P11609 205-297, limits assumed); test: ELISA, 31.6 µg/ml antibody
[3] = target: T2, human CD1a expressed on cells (human, UniProt P06126 17-327; P61769 21-119); test: flow cytometry, MOLT4 cells, 100 µg/ml antibody
T2 construct: also called HEK - CD1a; C1R - CD1a

[4] = target: T1, Cynomolgus monkey CD1a expressed on …; test: flow cytometry, HEK-293 cells, 10 µg/ml antibody
[5] = target: T3, human CD1a protein (pool B) (human, UniProt P06126 18-295, limits assumed); test: ELISA, 0.316 µg/ml antibody
T3 construct: Recombinant protein of the ELISA (coated) and the Biacore T200 titration; whole entry named; also called human CD1a pool B; full length CD1a
T3 sequence (P06126 18-295 limits assumed): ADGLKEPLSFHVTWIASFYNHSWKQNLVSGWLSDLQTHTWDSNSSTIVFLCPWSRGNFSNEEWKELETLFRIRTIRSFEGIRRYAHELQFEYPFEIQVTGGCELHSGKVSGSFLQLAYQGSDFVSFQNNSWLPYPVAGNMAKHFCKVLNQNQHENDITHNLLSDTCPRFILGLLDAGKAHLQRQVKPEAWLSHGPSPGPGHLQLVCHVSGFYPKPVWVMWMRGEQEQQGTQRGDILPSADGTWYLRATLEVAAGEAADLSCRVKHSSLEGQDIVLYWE

[6] = target: T4, CD1a[H86 A] (human, UniProt P06126 18-295, limits assumed); test: epitope mapping experiments (not described)
T4 construct: also called point mutant CD1a[H86A]
T4 chain: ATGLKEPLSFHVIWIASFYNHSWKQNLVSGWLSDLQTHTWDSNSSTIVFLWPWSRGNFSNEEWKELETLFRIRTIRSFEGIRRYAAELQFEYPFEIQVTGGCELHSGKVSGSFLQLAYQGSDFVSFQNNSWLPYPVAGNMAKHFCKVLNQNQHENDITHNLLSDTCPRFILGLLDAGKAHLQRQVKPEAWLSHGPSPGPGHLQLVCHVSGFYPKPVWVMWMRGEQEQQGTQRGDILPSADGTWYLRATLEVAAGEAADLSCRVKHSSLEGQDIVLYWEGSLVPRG

Sequence of chimeric CD1a pool B protein [human CD1a lipid binding domain, mouse CD1d Ig domain] (P06126 other isoform, or with tags, fused parts or gaps mutant limits assumed): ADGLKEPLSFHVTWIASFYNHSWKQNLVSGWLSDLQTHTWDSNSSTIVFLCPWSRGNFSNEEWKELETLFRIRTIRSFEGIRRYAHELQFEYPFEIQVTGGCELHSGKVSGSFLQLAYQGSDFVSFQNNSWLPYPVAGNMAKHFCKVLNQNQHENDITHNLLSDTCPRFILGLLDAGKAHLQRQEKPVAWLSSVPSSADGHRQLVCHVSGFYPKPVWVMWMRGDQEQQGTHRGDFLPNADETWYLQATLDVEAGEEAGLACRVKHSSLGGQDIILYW
T1 sequence (A0A2K5VQ68 entry or part of it): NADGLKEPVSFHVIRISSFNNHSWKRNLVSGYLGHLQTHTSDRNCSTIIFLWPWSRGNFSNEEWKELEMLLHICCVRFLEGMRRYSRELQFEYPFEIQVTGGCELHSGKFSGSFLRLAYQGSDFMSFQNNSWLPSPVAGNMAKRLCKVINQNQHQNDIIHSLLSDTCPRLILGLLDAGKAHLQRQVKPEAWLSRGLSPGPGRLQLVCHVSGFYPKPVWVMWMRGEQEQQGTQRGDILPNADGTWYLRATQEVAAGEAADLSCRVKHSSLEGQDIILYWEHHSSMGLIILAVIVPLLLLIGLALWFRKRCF

B1: 77A (VR11851) (antibody, V domains shown)
VH: QSVEESGGRLVTPGTPLTLTCTVSGFSLSSYAMSWVRQAPGKGLEWIGIISSSGTTYYASWAKGRFTISKTSTTVDLKITSPTTEDTATYFCARVDYYSSGWGGLWGPGTLVTVSS
VL: AVEMTQTPASMSAAVGGTVTIKCQASEDIYSNLAWYQQKPGQPPKLLIYGASTLASGVPSRFKGSGSGTEYTLTISGVQCDDAATYYCQCTYDTSSYGNTFGGGTEMVVE
notes: also called OX77a; antibody 77a
Fluorescence Intensity Geomean (normalized to background) [1]: 1.7 fold over background
Optical Density (OD) [2]: 1.33 OD
Fluorescence Intensity Geomean (normalized to background) [3]: 0.8 fold over background
Fluorescence Intensity Geomean (normalized to background) [4]: 1.4 fold over background
Optical Density (OD) [5]: 1.39 OD

B2: 110 (VR12112) (antibody, V domains shown)
VH: QSVEESGGRLVTPGTPLTLTCTVSGFSLSSYAMIWVRQAPGKGLEWIGIINSSDNTHYATWAKGRFTISKTSTTVDLKITSPTTEDTATYFCARDPYDYGYGWYFDLWGPGTLVTVSS
VL: AQVLTQTPSPVSAAVGGTVTINCQASQSVFNNKNLAWYQQKPGQPPKLLIYKASTLASGVSSRFKGSGSGTQFALTISGVQCDDAATYYCQGEFSCSSTDCVTFGGGTEVVVK
notes: also called OX110; antibody 110
Fluorescence Intensity Geomean (normalized to background) [1]: 1.2 fold over background
Optical Density (OD) [2]: 1.4 OD
Fluorescence Intensity Geomean (normalized to background) [3]: 5.2 fold over background
binding result [6]: no binding
Fluorescence Intensity Geomean (normalized to background) [4]: 13.6 fold over background
Optical Density (OD) [5]: 1.18 OD

B3: 111 (VR12113) (antibody, V domains shown)
VH: QSVEESGGRLVTPGTPLTLTCTASGFSLSTYAMSWVRQAPGKGLEWIGIISSSGSTYYASWAKGRFTISKTSTTVDLKITSPTTEDTATYFCARETWYWLDLWGQGTLVTVSS
VL: AVEMTQTPASVSAAVGGTVTINCQASEDIYSNLAWYQQKPGQPPKLLIYGASTLASGVPSRFKGSGSGTEYTLTISGVQCDDAATYYCQCAYDSSSYGTPFGGGTEVVVK
notes: also called OX111
Fluorescence Intensity Geomean (normalized to background) [1]: 8.9 fold over background
Optical Density (OD) [2]: 1.35 OD
Fluorescence Intensity Geomean (normalized to background) [3]: 3.9 fold over background
Fluorescence Intensity Geomean (normalized to background) [4]: 16.3 fold over background
Optical Density (OD) [5]: 1.04 OD

B4: 116 (VR12117) (antibody, V domains shown)
VH: QSVEESGGRLVTPGTPLTLTCTVSGFSLSNYAMSWVRQAPGKGLEWIGIIYTTGFTYYASWVKGRFTISKTSTTVDLKITSPTTEDTATYFCARGLATYVSPPTRLDLWGQGTLVTVSS
VL: AQVLTQTPSPVSAAVGGTVTINCQASQSIYNSKNLAWYQQKPGQPPKLLIYSASTLASGVPSRFKGSGSGTQFTLTISDLECDDAATYYCQGEFSCSSVDCATFGGGTEVVVK
notes: also called OX116
Fluorescence Intensity Geomean (normalized to background) [1]: 1 fold over background
Optical Density (OD) [2]: 1.35 OD
Fluorescence Intensity Geomean (normalized to background) [3]: 3.7 fold over background
Fluorescence Intensity Geomean (normalized to background) [4]: 1.7 fold over background
Optical Density (OD) [5]: 1.15 OD
